Source: patent publication US20200407397A1 (RESEARCH FOUNDATION FOR THE STATE UNIVERSITY OF NEW YORK, published 2020)
Where no end group is shown, it is not given here.

Columns and labels:
recombinant LDHA = recombinant LDHA (human, UniProt P00338 1-332); assay: fluorescence anisotropy, labelled peptide with recombinant LDHA
Experimental: Fluorescence anisotropy was measured in triplicate using a SpectraMax i3 equipped with rhodamine fluorescence polarization module (lex\lem.535 nm/595 nm). Curve fitting was done in KaleidaGraph 4.0.

[1] = molecular target: Lactate dehydrogenase A (LDHA), endogenous (human, UniProt P00338 2-332); assay: anti-FLAG IP from HEK293, immunoblot for LDHA

| binding result (recombinant LDHA) | binding result [1] | Binder |
| --- | --- | --- |
| binds | – | AQRMNTAFTP (also: Rhodamine B label, site not given here, Labelled form used for fluorescence anisotropy and for the ex vivo tissue treatment; also called FLCN-10-Rhod-B; Rhodamine-B-labeled FLCN-10) [FLCN-10-Rhodamine B] |
| – | no binding | FLCN P228A mutant (FLAG-tagged) (other, Full FLCN protein with a point mutation in the FLCN-10 region, expressed in HEK293 cells; not shown: FLAG tag (immunoprecipitated using anti-FLAG agarose)) MNAIVALCHFCELHGPRTLFCTEVLHAPLPQGDGNEDSPGQGEQAEEEEGGIQMNSRMRAHSPAEGASVESSSPGPKKSDMCEGCRSLAAGHPGYISHDKETSIKYVSHQHPSHPQLFSIVRQACVRSLSCEVCPGREGPIFFGDEQHGFVFSHTFFIKDSLARGFQRWYSIITIMMDRIYLINSWPFLLGKVRGIIDELQGKALKVFEAEQFGCPQRAQRMNTAFTAFLHQRNGNAARSLTSLTSDDNLWACLHTSFAWLLKACGSRLTEKLLEGAPTEDTLVQMEKLADLEEESESWDNSEAEEEEKAPVLPESTEGRELTQGPAESSSLSGCGSWQPRKLPVFKSLRHMRQVLGAPSFRMLAWHVLMGNQVIWKSRDVDLVQSAFEVLRTMLPVGCVRIIPYSSQYEEAYRCNFLGLSPHVQIPPHVLSSEFAVIVEVHAAARSTLHPVGCEDDQSLSKYEFVVTSGSPVAADRVGPTILNKIEAALTNQNLSVDVVDQCLVCLKEEWMNKVKVLFKFTKVDSRPKEDTQKLLSILGASEEDNVKLLKFWMTGLSKTYKSHLMSTVRSPTASESRN |
| – | binds | FLCN-M222A-FLAG (other, Expressed in HEK293, UOK257 and ccRCC cells; also called M222A mutant; not shown: FLAG tag) MNAIVALCHFCELHGPRTLFCTEVLHAPLPQGDGNEDSPGQGEQAEEEEGGIQMNSRMRAHSPAEGASVESSSPGPKKSDMCEGCRSLAAGHPGYISHDKETSIKYVSHQHPSHPQLFSIVRQACVRSLSCEVCPGREGPIFFGDEQHGFVFSHTFFIKDSLARGFQRWYSIITIMMDRIYLINSWPFLLGKVRGIIDELQGKALKVFEAEQFGCPQRAQRANTAFTPFLHQRNGNAARSLTSLTSDDNLWACLHTSFAWLLKACGSRLTEKLLEGAPTEDTLVQMEKLADLEEESESWDNSEAEEEEKAPVLPESTEGRELTQGPAESSSLSGCGSWQPRKLPVFKSLRHMRQVLGAPSFRMLAWHVLMGNQVIWKSRDVDLVQSAFEVLRTMLPVGCVRIIPYSSQYEEAYRCNFLGLSPHVQIPPHVLSSEFAVIVEVHAAARSTLHPVGCEDDQSLSKYEFVVTSGSPVAADRVGPTILNKIEAALTNQNLSVDVVDQCLVCLKEEWMNKVKVLFKFTKVDSRPKEDTQKLLSILGASEEDNVKLLKFWMTGLSKTYKSHLMSTVRSPTASESRN |
| – | no binding | FLCN R221A mutant (FLAG-tagged) (other, Full FLCN protein with a point mutation in the FLCN-10 region, expressed in HEK293 cells; not shown: FLAG tag (immunoprecipitated using anti-FLAG agarose)) MNAIVALCHFCELHGPRTLFCTEVLHAPLPQGDGNEDSPGQGEQAEEEEGGIQMNSRMRAHSPAEGASVESSSPGPKKSDMCEGCRSLAAGHPGYISHDKETSIKYVSHQHPSHPQLFSIVRQACVRSLSCEVCPGREGPIFFGDEQHGFVFSHTFFIKDSLARGFQRWYSIITIMMDRIYLINSWPFLLGKVRGIIDELQGKALKVFEAEQFGCPQRAQAMNTAFTPFLHQRNGNAARSLTSLTSDDNLWACLHTSFAWLLKACGSRLTEKLLEGAPTEDTLVQMEKLADLEEESESWDNSEAEEEEKAPVLPESTEGRELTQGPAESSSLSGCGSWQPRKLPVFKSLRHMRQVLGAPSFRMLAWHVLMGNQVIWKSRDVDLVQSAFEVLRTMLPVGCVRIIPYSSQYEEAYRCNFLGLSPHVQIPPHVLSSEFAVIVEVHAAARSTLHPVGCEDDQSLSKYEFVVTSGSPVAADRVGPTILNKIEAALTNQNLSVDVVDQCLVCLKEEWMNKVKVLFKFTKVDSRPKEDTQKLLSILGASEEDNVKLLKFWMTGLSKTYKSHLMSTVRSPTASESRN |
| – | no binding | FLCN-F226A-FLAG (other, Expressed in HEK293 and UOK257 cells; not shown: FLAG tag) MNAIVALCHFCELHGPRTLFCTEVLHAPLPQGDGNEDSPGQGEQAEEEEGGIQMNSRMRAHSPAEGASVESSSPGPKKSDMCEGCRSLAAGHPGYISHDKETSIKYVSHQHPSHPQLFSIVRQACVRSLSCEVCPGREGPIFFGDEQHGFVFSHTFFIKDSLARGFQRWYSIITIMMDRIYLINSWPFLLGKVRGIIDELQGKALKVFEAEQFGCPQRAQRMNTAATPFLHQRNGNAARSLTSLTSDDNLWACLHTSFAWLLKACGSRLTEKLLEGAPTEDTLVQMEKLADLEEESESWDNSEAEEEEKAPVLPESTEGRELTQGPAESSSLSGCGSWQPRKLPVFKSLRHMRQVLGAPSFRMLAWHVLMGNQVIWKSRDVDLVQSAFEVLRTMLPVGCVRIIPYSSQYEEAYRCNFLGLSPHVQIPPHVLSSEFAVIVEVHAAARSTLHPVGCEDDQSLSKYEFVVTSGSPVAADRVGPTILNKIEAALTNQNLSVDVVDQCLVCLKEEWMNKVKVLFKFTKVDSRPKEDTQKLLSILGASEEDNVKLLKFWMTGLSKTYKSHLMSTVRSPTASESRN |
